The target in assay [1] is T1, human insulin receptor extracellular domain (HIR ECD) (human, UniProt P06213 28-956, limits assumed).
T1 construct: extracellular domain
Description: competitive ligand binding assay, displacement of [125I]-murine HIRMAb from plated HIR ECD, Scatchard analysis. The procedure: CHO cells transfected with the HIR ECD were grown in serum free media (SFM), and the HIR ECD was purified with a wheat germ agglutinin affinity column.
In general terms: Loss of bound radioactivity is the signal in a displacement assay; it reports binding, not function.

Assay [2] addresses T1, human insulin receptor extracellular …. Description: ELISA on plated HIR ECD, detection with biotinylated goat anti-human IgG (H+L). The procedure: CHO cells permanently transfected with the HIR ECD were grown in serum free media (SFM), and the HIR ECD was purified with a wheat germ agglutinin affinity column.
(In general: An ELISA detects its analyte on a solid surface through an enzyme-linked reagent.)

B1: chimeric HIRMAb (chimeric monoclonal antibody against the human insulin receptor) (antibody, human IgG1, kappa, V domains shown)
VH: QVQLQQSGPELVKPGALVKISCKASGYTFTNYDIHWVKQRPGQGLEWIGWIYPGDGSTKYNEKFKGKATLTADKSSSTAYMHLSSLTSEKSAVYFCAREWAYWGQGTLVTVSA
VL: DIQMTQSPSSLSASLGERVSLTCRASQDIGGNLYWLQQGPDGTIKRLIYATSSLDSGVPKRFSGSRSGSDYSLTISSLESEDFVDYYCLQYSSSPWTFGGGTKMEIKR
notes: Chimeric human IgG1/kappa
Broadly, the Ki is a dissociation constant, usually derived from enzyme kinetics or from competition with a known ligand. As usually defined, the EC50 is the concentration that produces a half-maximal response. Low readings indicate higher potency in that assay, high ones lower potency in that assay. For B1, the Ki in assay [1] is 630 pM. Besides, the EC50 in assay [2] turned out to be 210 pM.

Source of the values: patent US20100261647A1 (ARMAGEN TECHNOLOGIES, published 2010).
